Columns and labels:
[1] = target: soluble form of Fas ligand (mouse (endogenous in primary Balb/cJ bone marrow-derived osteoclast cultures))
[2] = target: soluble form of Fas ligand (mouse (endogenous in primary Balb/cJ bone marrow-derived osteoclast cultures)); remark: listed apart in the source

Sequence of soluble form of Fas ligand (mouse (endogenous in primary Balb/cJ bone marrow-derived osteoclast cultures)) (P41047 101-279): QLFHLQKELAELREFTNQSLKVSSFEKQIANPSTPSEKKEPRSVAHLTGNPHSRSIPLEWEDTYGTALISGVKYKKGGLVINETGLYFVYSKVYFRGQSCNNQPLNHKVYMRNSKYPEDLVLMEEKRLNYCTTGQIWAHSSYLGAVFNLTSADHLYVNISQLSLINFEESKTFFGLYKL

“Osteoprotegerin (from UniProt O08712 22-401) (receptor)” gave a concentration of soluble FasL in the osteoclast culture medium by ELISA, 24 h with OPG at 0, 20, 40, 80 ng/mL (69.44, 54.51, 41.71, 4.59 pg/mL; falls with the dose) [1] of 69.4 pg/mL and a percentage of apoptotic osteoclasts (TUNEL-derived method), 24 h with OPG at 0, 20, 40, 80 ng/mL (22.7%, 34.8%, 43.5%, 51.3%) [2] of 51.3%.
